US20250136687A1
Several values for one entry are separate records, joined by “and”; a condition that tells them apart may be missing. Equal values may be shown once. Read-outs that look alike come from different tables or passages of the source. Each block holds one substance with its values, some of them ahead of it.

Tests used:
[1] = target: monkey CD3ε/δ-His (monkey) (UniProt Q95LI5); experiment: ELISA, coated antigen, hybridoma screening
human CD3ε/δ-His (human) [2] = target: human CD3ε/δ-His (human) (UniProt P07766); experiment: ELISA, coated antigen, hybridoma screening
human CD3ε/δ-His (human), sequence (P07766 23-126, stated change not applied, form in doubt, chain 1 of 2): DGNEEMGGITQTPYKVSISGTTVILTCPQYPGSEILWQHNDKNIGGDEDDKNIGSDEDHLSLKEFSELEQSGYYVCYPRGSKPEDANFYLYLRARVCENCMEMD
human CD3ε/δ-His (human), sequence (P04234 22-105, stated change not applied, form in doubt, chain 2 of 2, further chain): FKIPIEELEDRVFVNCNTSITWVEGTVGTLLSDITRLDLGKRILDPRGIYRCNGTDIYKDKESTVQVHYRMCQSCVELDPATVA

[3] = target: human CD3 on the cell surface (Jurkat cells, expanded human T cells, Jurkat-Lucia NFAT cells, human PBMC) (human) (UniProt P07766); experiment: FACS, expanded human T cells
human CD3 on the cell surface (Jurkat cells, expanded human T cells, Jurkat-Lucia NFAT cells, human PBMC) (human), sequence (P07766 23-207, chain 1 of 3): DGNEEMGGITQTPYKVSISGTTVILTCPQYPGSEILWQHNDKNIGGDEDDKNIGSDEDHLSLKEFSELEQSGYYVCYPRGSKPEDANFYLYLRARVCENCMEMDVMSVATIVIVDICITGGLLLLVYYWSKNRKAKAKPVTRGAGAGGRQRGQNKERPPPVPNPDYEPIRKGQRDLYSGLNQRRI
human CD3 on the cell surface (Jurkat cells, expanded human T cells, Jurkat-Lucia NFAT cells, human PBMC) (human), sequence (P04234 22-171, chain 2 of 3, further chain): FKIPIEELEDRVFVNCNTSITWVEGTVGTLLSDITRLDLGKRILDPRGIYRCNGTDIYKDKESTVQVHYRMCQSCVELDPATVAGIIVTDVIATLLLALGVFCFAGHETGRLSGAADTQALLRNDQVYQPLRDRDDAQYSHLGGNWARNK
human CD3 on the cell surface (Jurkat cells, expanded human T cells, Jurkat-Lucia NFAT cells, human PBMC) (human), sequence (P09693 23-182, chain 3 of 3, further chain): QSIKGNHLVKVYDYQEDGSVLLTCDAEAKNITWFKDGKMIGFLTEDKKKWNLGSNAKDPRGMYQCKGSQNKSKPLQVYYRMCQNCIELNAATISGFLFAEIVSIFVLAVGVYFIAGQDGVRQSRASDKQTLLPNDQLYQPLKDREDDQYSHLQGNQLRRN

[4] = target: human CD3 on the cell surface (Jurkat cells, expanded human T cells, Jurkat-Lucia NFAT cells, human PBMC) (human) (UniProt P07766); experiment: FACS, expanded human T cells; remark: listed apart in the source
[5] = target: cynomolgus monkey CD3 on the surface of expanded monkey T cells (cynomolgus monkey) (UniProt Q95LI5); experiment: FACS, expanded monkey T cells
cynomolgus monkey CD3 on the surface of expanded monkey T cells (cynomolgus monkey), sequence (Q95LI5 22-198, chain 1 of 3): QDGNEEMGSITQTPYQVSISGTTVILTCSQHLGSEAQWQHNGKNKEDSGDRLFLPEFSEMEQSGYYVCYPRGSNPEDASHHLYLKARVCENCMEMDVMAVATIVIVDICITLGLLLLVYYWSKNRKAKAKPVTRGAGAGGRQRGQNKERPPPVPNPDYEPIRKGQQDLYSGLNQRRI
cynomolgus monkey CD3 on the surface of expanded monkey T cells (cynomolgus monkey), sequence (Q95LI8 22-171, chain 2 of 3, further chain): as the sequence (P04234 22-171, chain 2 of 3, further chain) above, with I5V, N15K, I20V, S32T, D33N, I34N, T64A, S74N, V83L, H141R counted along it
cynomolgus monkey CD3 on the surface of expanded monkey T cells (cynomolgus monkey), sequence (Q95LI7 23-181, chain 3 of 3, further chain): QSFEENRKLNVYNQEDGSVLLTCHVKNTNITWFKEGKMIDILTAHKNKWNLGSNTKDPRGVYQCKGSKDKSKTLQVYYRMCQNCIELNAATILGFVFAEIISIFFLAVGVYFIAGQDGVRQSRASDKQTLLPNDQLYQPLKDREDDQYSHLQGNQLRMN

[6] = target: human CD3 on the cell surface (Jurkat cells, expanded human T cells, Jurkat-Lucia NFAT cells, human PBMC) (human) (UniProt P07766); experiment: FACS, expanded human T cells; remark: listed apart in the source
[7] = target: cynomolgus monkey CD3 on the surface of expanded monkey T cells (cynomolgus monkey) (UniProt Q95LI5); experiment: FACS, expanded monkey T cells; remark: listed apart in the source
[8] = target: human CD3 on the cell surface (Jurkat cells, expanded human T cells, Jurkat-Lucia NFAT cells, human PBMC) (human) (UniProt P07766); experiment: cell-based or functional assay
[9] = target: human CD3 on the cell surface (Jurkat cells, expanded human T cells, Jurkat-Lucia NFAT cells, human PBMC) (human) (UniProt P07766); experiment: cell-based or functional assay; remark: listed apart in the source
[10] = target: human CD3 on the cell surface (Jurkat cells, expanded human T cells, Jurkat-Lucia NFAT cells, human PBMC) (human) (UniProt P07766); experiment: cell-based or functional assay; remark: listed apart in the source
[11] = target: recombinant human CD3ε-ECD His protein (human) (UniProt P07766); experiment: ELISA, coated antigen
recombinant human CD3ε-ECD His protein (human), sequence (P07766 23-126): as the sequence (P07766 23-126, stated change not applied, form in doubt, chain 1 of 2) above

[12] = target: human CD3 on the cell surface (Jurkat cells, expanded human T cells, Jurkat-Lucia NFAT cells, human PBMC) (human) (UniProt P07766); experiment: FACS, Jurkat cells
[13] = target: human CD3 on the cell surface (Jurkat cells, expanded human T cells, Jurkat-Lucia NFAT cells, human PBMC) (human) (UniProt P07766); experiment: cell-based or functional assay; remark: listed apart in the source
[14] = target: human CD3 on the cell surface (Jurkat cells, expanded human T cells, Jurkat-Lucia NFAT cells, human PBMC) (human) (UniProt P07766); experiment: FACS, Jurkat cells; remark: listed apart in the source
[15] = target: cynomolgus monkey CD3 on the surface of expanded monkey T cells (cynomolgus monkey) (UniProt Q95LI5); experiment: FACS, expanded monkey T cells, 4 nM antibody
[16] = target: recombinant human CD3ε-ECD His protein (human) (UniProt P07766); experiment: ELISA, coated antigen; remark: listed apart in the source
[17] = target: monkey CD3ε/δ-His (monkey) (UniProt Q95LI5); experiment: ELISA, coated antigen
human CD3ε/δ-His (human) [18] = target: human CD3ε/δ-His (human) (UniProt P07766); experiment: ELISA, coated antigen
[19] = target: monkey CD3ε protein (monkey) (UniProt Q95LI5); experiment: ELISA, coated antigen
monkey CD3ε protein (monkey), sequence (Q95LI5 22-117 limits assumed): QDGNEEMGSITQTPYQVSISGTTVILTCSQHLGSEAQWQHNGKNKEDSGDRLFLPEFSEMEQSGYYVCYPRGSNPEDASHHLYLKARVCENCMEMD

[20] = target: human CD3 on the cell surface (Jurkat cells, expanded human T cells, Jurkat-Lucia NFAT cells, human PBMC) (human) (UniProt P07766); experiment: FACS, expanded human T cells; remark: listed apart in the source
[21] = target: cynomolgus monkey CD3 on the surface of expanded monkey T cells (cynomolgus monkey) (UniProt Q95LI5); experiment: FACS, expanded monkey T cells; remark: listed apart in the source
[22] = target: cynomolgus monkey CD3 on the surface of expanded monkey T cells (cynomolgus monkey) (UniProt Q95LI5); experiment: FACS, expanded monkey T cells, 100 nM antibody
[23] = target: human CD3 on the cell surface (Jurkat cells, expanded human T cells, Jurkat-Lucia NFAT cells, human PBMC) (human) (UniProt P07766); experiment: FACS, Jurkat cells; remark: listed apart in the source
[24] = target: cynomolgus monkey CD3 on the surface of expanded monkey T cells (cynomolgus monkey) (UniProt Q95LI5); experiment: FACS, expanded monkey T cells, 20 nM antibody

monkey CD3ε/δ-His (monkey), sequence (Q95LI5 22-117, stated change not applied, form in doubt, chain 1 of 2): as the sequence (Q95LI5 22-117 limits assumed) above
monkey CD3ε/δ-His (monkey), sequence (Q95LI8 22-105, stated change not applied, form in doubt, chain 2 of 2, further chain): as the sequence (P04234 22-105, stated change not applied, form in doubt, chain 2 of 2, further chain) above, with I5V, N15K, I20V, S32T, D33N, I34N, T64A, S74N, V83L counted along it

OD450 [1]: 0.07 OD450 and 0.04 OD450 and 0.05 OD450
OD450 (human CD3ε/δ-His (human) [2]): 0.05 OD450 and 0.04 OD450
Substance: anti-hel-mIgG1 (negative control antibody against Hen Egg Lysozyme)

MFI Max [3]: 148 MFI
MFI Max [4]: 195 MFI
MFI Max [5]: 1570 MFI
MFI Max [6]: 124 MFI
MFI Max [7]: 195 MFI
Maximum response value (RLU) [8]: 3780 RLU
Maximum response value (RLU) [9]: 1830 RLU
Maximum response value (RLU) [10]: 2330 RLU
max-OD450 [11]: 0.09 OD450
MFI Max [12]: 151 MFI
Maximum response value (RLU) [13]: 4250 RLU
MFI Max [14]: 490 MFI
Maximum fluorescence value Alexa 647 [14]: 108 MFI
MFI at antibody concentration 4 nM [15]: 64 MFI
max-OD450 [16]: 0.11 OD450
max-OD450 [17]: 0.15 OD450
max-OD450 (human CD3ε/δ-His (human) [18]): 0.09 OD450
max-OD450 [19]: 0.16 OD450
EC50 [20]: 19.9 nM
MFI Max [20]: 823 MFI
Maximum fluorescence value Alexa 647 [20]: 480 MFI
max MFI [20]: 2250 MFI
MFI Max [21]: 87 MFI
Maximum fluorescence value Alexa 647 [21]: 299 MFI
max MFI [21]: 74 MFI
MFI at antibody concentration 100 nM [22]: 170 MFI
MFI Max [23]: 182 MFI
MFI at antibody concentration 20 nM [24]: 80 MFI
Substance: anti-hel-hIgG1 (negative control antibody against Hen Egg Lysozyme)
